Data: patent US20100093014A1, “SCREENING FOR BONE ANABOLIC FACTORS” (NORDIC BIOSCIENCE IMAGING A/S, priority 2007, published 2010)

System: TCF/LEF response elements
Experiment: TOPflash luciferase reporter system (TCF/LEF response elements) in UMR-106 cells
Format: cell-based, rat
Source text: We transiently infected UMR-106 cells (a rat sarcoma derived cell line) with a luciferase reporter system TOPflash containing 8 TCF/LEF response elements placed in the promoter region of the luciferase reporter gene.
To investigate the effect of secreted signals from osteoclasts we collected conditioned medium from osteoclasts cultured either on bone or on plastic, and compared their ability to induce activation of cells transiently transfected with the TCF/LEF reporter system to that of non-conditioned osteoclast culture medium. The cells were then treated for 24 hours with either control compounds, vehicle or the different conditioned media, after which the cells were lysed and the Luciferase activity was measured by a […] assay.

B1: DKK1: Wnt inhibitor (protein, UniProt O94907 32-266, looked up)
Dickkopf-related protein 1: TLNSVLNSNAIKNLPPPLGGAAGHPGSAVSAAPGILYPGGNKYQTIDNYQPYPCAEDEECGTDEYCASPTRGGDAGVQICLACRKRRKRCMRHAMCCPGNYCKNGICVSSDQNHFRGEIEETITESFGNDHSTLDGYSRRTTLSSKMYHTKGQEGSVCLRSSDCASGLCCARHFWSKICKPVLKEGQVCTKHRRKGSHGLEIFQRCYCGEGLSCRIQKDHHQASNSSRLHTCQRH
With B1 the “inhibition of TCF/LEF activation induced by conditioned medium from osteoclasts on bone” value (24 hours) was “inhibited”, the “inhibition of TCF/LEF activation induced by signal from non-resorbing osteoclasts on plastic” value (24 hours) was “again was inhibited” and the “inhibition of Wnt3A-induced TCF/LEF activation” value (activation by Wnt3A) was “inhibits this activation”.

B2: Wnt3A: positive control for the TCF/LEF luciferase reporter (protein, UniProt P56704 19-352, looked up)
Protein Wnt-3a: SYPIWWSLAVGPQYSSLGSQPILCASIPGLVPKQLRFCRNYVEIMPSVAEGIKIGIQECQHQFRGRRWNCTTVHDSLAIFGPVLDKATRESAFVHAIASAGVAFAVTRSCAEGTAAICGCSSRHQGSPGKGWKWGGCSEDIEFGGMVSREFADARENRPDARSAMNRHNNEAGRQAIASHMHLKCKCHGLSGSCEVKTCWWSQPDFRAIGDFLKDKYDSASEMVVEKHRESRGWVETLRPRYTYFKVPTERDLVYYEASPNFCEPNPETGSFGTRDRTCNVSSHGIDGCDLLCCGRGHNARAERRREKCRCVFHWCCYVSCQECTRVYDVHTCK
With B2 the “TCF/LEF activation (luciferase activity)” value (treated for 24 hours) was “induces a strong activation”.
